Consider 4 molecules from patent publication US20140120095A1 (Boehringer Ingelheim, published 2014).

For experiment [1], the target named is T1, recombinant human DLL4 (human, UniProt Q9NR61 25-522).
T1 construct: also called rhDLL4; hDLL4
As to the kind of experiment: Biacore off-rate, periplasmic extract; single VHH, not bracketed. Background: Surface plasmon resonance follows binding to a sensor surface in real time, without labels.

The target in experiment [2] is T2, human DLL4 overexpressed on cells (human, UniProt Q9NR61 27-685).
T2 construct: full length human DLL4 on CHO or HEK293 cells; also called CHO-hDLL4; CHO-hDII4
As to the kind of experiment: FMAT, labelled hNotch1-Fc on CHO-hDLL4, periplasmic extract. An excerpt: (§1) All calculations are based on the FL1_total signal which comprises the average of the fluorescence per well times the number of counts per well.

Experiment [3] addresses T3, mouse DLL4 overexpressed on cells (mouse, UniProt Q9JI71 27-686).
T3 construct: whole, on cells; also called CHO-mDLL4; CHO-mDII4
Briefly: FMAT, labelled hNotch1-Fc on CHO-mDLL4, periplasmic extract.
Text: as §1

Experiment [4] addresses T4, mouse DLL4, full length, overexpressed on CHO cells (mouse, UniProt Q9JI71 27-686).
T4 construct: whole, on cells; also called mDLL4; CHO-mDLL4
Briefly: FMAT, hNotch1-Fc on CHO-mDLL4, -HSA.

Experiment [5] deals with T5, human DLL4, full length, overexpressed on cells (human, UniProt Q9NR61 27-685).
T5 construct: CHO cells in FMAT, HEK293 cells in the reporter assay; also called hDLL4; CHO-hDLL4
As to the kind of experiment: FMAT, hNotch1-Fc on CHO-hDLL4, -HSA.

Experiment [6] has as its target T4, mouse DLL4, full length, overexpressed …. Briefly: FMAT, hNotch1-Fc on CHO-mDLL4, +25 uM HSA.
Experiment [7] has as its target T5, human DLL4, full length, overexpressed …. Briefly: FMAT, hNotch1-Fc on CHO-hDLL4, +25 uM HSA.
Experiment [8] deals with T6, human VEGFR2-Fc chimera (human, UniProt P35968 20-764).
T6 construct: also called hVEGFR2-Fc; VEGFR2-huFc; not shown: human Fc part of the bought chimera; not described
T6 sequence (P35968 20-764, change not shown): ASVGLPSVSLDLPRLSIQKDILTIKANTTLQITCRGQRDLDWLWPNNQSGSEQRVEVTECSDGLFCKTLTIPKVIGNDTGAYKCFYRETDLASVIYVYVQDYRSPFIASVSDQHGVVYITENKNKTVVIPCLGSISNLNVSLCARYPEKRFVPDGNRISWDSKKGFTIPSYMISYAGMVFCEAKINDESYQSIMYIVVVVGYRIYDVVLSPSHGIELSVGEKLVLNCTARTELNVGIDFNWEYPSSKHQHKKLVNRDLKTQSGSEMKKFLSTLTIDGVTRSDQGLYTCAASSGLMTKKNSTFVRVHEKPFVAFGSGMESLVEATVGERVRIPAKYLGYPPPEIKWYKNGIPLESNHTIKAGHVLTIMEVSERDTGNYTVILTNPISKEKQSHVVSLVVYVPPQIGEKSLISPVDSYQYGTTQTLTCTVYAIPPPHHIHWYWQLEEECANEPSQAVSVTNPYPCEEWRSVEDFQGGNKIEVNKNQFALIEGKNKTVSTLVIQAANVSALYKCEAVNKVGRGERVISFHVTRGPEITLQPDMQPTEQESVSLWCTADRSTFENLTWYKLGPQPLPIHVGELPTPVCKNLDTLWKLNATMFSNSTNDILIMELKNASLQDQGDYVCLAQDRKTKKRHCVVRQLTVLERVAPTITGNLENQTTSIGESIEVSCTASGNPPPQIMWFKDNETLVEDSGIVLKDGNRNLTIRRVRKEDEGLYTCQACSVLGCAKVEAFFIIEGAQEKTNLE
Briefly: ELISA, coated VEGF109. The protocol: Cells are harvested by centrifugation and lysed by sonication of the cell pellet. Inclusion bodies are isolated by centrifugation. […] The refolded protein is purified by ion exchange chromatography using a MonoQ5/50GL (Amersham BioSciences) column followed by gel filtration with a Superdex75 10/300 GL column (Amersheim BioSciences). […] To this end, 1 μg/mL of recombinant human VEGF109 is immobilized overnight at 4° C. in a 96-well MaxiSorp plate (Nunc, Wiesbaden, Germany). Wells are blocked with a casein solution (1%).

Experiment [9] concerns the target T7, VEGFD (UniProt O43915 93-201, limits assumed).
T7 sequence (looked up): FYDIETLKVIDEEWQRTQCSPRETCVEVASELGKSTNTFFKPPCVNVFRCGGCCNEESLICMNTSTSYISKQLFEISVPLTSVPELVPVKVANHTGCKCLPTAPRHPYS
As to the kind of experiment: binding ELISA on coated VEGFD (Example 12.8), OD 450 nm. As for the experimental part: (§2) Binding to VEGFB, VEGFC, VEGFD and PIGF is assessed via a solid phase binding ELISA. […] Wells are blocked with a casein solution (1% in PBS). […] As positive controls serial dilutions of the appropriate receptors are taken along and detected with horseradish peroxidase (HRP)-conjugated goat anti-human IgG, Fc specific antibody (Jackson Immuno Research Laboratories Inc., West Grove, Pa., USA) and a subsequent enzymatic reaction in the presence of the substrate TMB (3,3′,5,5′-tetramentylbenzidine) (Pierce, Rockford, Ill., USA).

For experiment [10], the target named is T8, VEGFB (UniProt P49765-2 22-188, limits assumed).
T8 sequence (looked up): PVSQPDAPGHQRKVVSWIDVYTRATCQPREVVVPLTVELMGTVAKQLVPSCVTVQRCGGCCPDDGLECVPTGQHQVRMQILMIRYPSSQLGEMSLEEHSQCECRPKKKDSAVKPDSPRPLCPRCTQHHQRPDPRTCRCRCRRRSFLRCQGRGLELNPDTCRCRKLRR
Briefly: binding ELISA on coated VEGFB (Example 12.8), OD 450 nm. The protocol:
as §2
In general terms: ELISA stands for enzyme-linked immunosorbent assay.

In experiment [11] the target is T9, VEGFC (UniProt P49767 103-227, limits assumed).
T9 sequence (looked up): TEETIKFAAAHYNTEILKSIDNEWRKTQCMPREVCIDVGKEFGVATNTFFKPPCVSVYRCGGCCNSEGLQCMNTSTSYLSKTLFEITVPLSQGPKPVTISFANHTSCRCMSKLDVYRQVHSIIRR
Briefly: binding ELISA on coated VEGFC (Example 12.8), OD 450 nm. As for the experimental part:
as §2

The target in experiment [12] is T10, PIGF (UniProt P49763-2 21-149, limits assumed).
T10 construct: also called placenta growth factor
T10 sequence (looked up): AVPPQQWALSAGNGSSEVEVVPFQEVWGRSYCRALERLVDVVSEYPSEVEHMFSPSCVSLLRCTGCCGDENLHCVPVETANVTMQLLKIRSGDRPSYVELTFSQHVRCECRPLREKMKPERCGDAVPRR
Briefly: solid phase binding ELISA on coated PIGF (Example 12.8). The protocol: as §2

A word on the koff: it is a measure of how fast the partners let go of each other. As a reminder, the IC50 is the midpoint of a concentration-inhibition curve. A lower IC50 goes with greater potency in that assay.

T4 sequence (Q9JI71 27-686): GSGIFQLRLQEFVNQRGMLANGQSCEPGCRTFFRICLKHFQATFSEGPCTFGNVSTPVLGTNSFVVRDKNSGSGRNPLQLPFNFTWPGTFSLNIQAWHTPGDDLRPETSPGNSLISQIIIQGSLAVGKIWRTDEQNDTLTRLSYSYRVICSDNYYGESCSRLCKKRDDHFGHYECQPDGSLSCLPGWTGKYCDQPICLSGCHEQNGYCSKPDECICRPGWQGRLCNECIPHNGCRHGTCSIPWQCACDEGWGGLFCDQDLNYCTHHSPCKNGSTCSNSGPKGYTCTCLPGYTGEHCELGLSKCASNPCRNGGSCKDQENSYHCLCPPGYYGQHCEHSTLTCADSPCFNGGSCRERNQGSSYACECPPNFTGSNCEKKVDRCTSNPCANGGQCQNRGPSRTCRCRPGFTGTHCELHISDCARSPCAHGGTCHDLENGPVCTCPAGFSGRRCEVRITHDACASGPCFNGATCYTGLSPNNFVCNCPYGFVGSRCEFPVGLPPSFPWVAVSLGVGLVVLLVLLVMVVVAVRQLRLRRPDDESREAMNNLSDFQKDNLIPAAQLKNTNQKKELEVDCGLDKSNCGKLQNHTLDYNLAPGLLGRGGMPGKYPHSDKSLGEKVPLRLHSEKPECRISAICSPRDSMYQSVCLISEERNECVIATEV
T3 sequence (Q9JI71 27-686): as above

B1: DLLBII101F01 (VHH)
VHH: EVQLVESGGGLVQAGGSLRLSCAASGRTFSNYAMGWFRQAPGKEREFVAAISWSGGDTYYADSVKGRFTISRDNAKNTVCLQMNSLKPEDTAVYYCAASFQSGAAPGANFYDYWGQGTQVTVSS
Take B1: in experiment [1], the koff stood at 0.02 s⁻¹. Further, the “% inh” value in experiment [2] was 85%; in [3], 78%.

B2: DLLBII018 (VHH)
VHH: EVQLVESGGGLVQPGGSLRLSCAASGRTFSSYAMAWYRQAPGKEREYVAAIRWSGGTAYYADSVKGRFTISRDNAKNTVYLQMNSLRPEDTAVYYCANRAPDTRLAPYEYDHWGQGTLVTVSS
For the molecule B2, the “% inh” value in [4] was 99%; in experiment [5], 87%. The IC50 stood at 2.4 nM in experiment [4], 5.5 nM in experiment [5], 2.8 nM in experiment [6] and 7.1 nM in [7].

B3: recombinant human VEGF109 (ligand, UniProt P15692 207-315, looked up)
chain: APMAEGGGQNHHEVVKFMDVYQRSYCHPIETLVDIFQEYPDEIEYIFKPSCVPLMRCGGCCNDEGLECVPTEESNITMQIMRIKPHQGQHIGEMSFLQHNKCECRPKKD
notes: residue numbers count on GenBank AAM03108.1; also called rhVEGF109
With B3, the binding result in experiment [8] was “binds”.

B4: VEGFBII010 (VHH)
chain: EVQLVESGGGLVQTGDSLRLSCEVSGRTFSSYSMGWFRQAQGKEREFVVAISKGGYKYDSVSLEGRFTISKDNAKNTVYLQINSLKPEDTAVYYCASSRAYGSSRLRLADTYEYWGQGTQVTVSSGGGGSGGGGSGGGGSGGGGSGGGGSGGGGSGGGGSEVQLVESGGGLVQTGDSLRLSCEVSGRTFSSYSMGWFRQAQGKEREFVVAISKGGYKYDSVSLEGRFTISKDNAKNTVYLQINSLKPEDTAVYYCASSRAYGSSRLRLADTYEYWGQGTQVTVSS
notes: homodimeric bivalent VHH; also called VEGFBII23B04-35GS-23B04
On to B4, for which the binding result is given as “no binding (tested: 5e-7 M)” in experiment [9], “no binding (tested: 5e-7 M)” in experiment [10], “no binding (tested: 5e-7 M)” in experiment [11] and “no binding (tested: about 5e-7 M)” in experiment [12].
